The values that follow come from patent US20260209325A1 (SCHOLAR ROCK, published 2026).

One test concerns the target human GDF-11 (human, UniProt O95390 299-407, limits assumed). Description: plate binding assay, OD 450 nm, one antibody concentration that is not given, on Hu-GDF-11 (method not described in the text).
Another test addresses mouse GDF-11 (mouse, UniProt Q9Z1W4 297-405, limits assumed). Nature of the test: plate binding assay, OD 450 nm, one antibody concentration that is not given, on Mu-GDF-11 (method not described in the text).
For test [1], the target named is T1, human pro-myostatin (human, UniProt O14793 24-375, biotinylated (in the SPR assay)).
T1 construct: Disulfide-linked homodimer; also called proGDF8 (human)
Nature of the test: plate binding assay, OD 450 nm, antibody titrated 0.0003 to 100 nM, panel 'Hu-Pro-GDF-8 Plate 2' (method not described in the text).

In test [2] the target is T2, murine pro-myostatin (mouse, UniProt O08689 25-376, biotinylated (in the SPR assay)).
T2 construct: also called proGDF8 (mouse); mouse pro-myostatin
Description: plate binding assay, OD 450 nm, antibody titrated 0.0003 to 100 nM, panel 'Mu-Pro-GDF-8 Plate 2' (method not described in the text).

The target in test [3] is T1, human pro-myostatin. Description: plate binding assay, OD 450 nm, antibody titrated 0.0003 to 100 nM, panel 'Hu-Pro-GDF-8 Plate 3' (method not described in the text).
Test [4] addresses T2, murine pro-myostatin. Nature of the test: plate binding assay, OD 450 nm, antibody titrated 0.0003 to 100 nM, panel 'Mu-Pro-GDF-8 Plate 3' (method not described in the text).
For test [5], the target named is T3, recombinant human latent myostatin (human, UniProt O14793 24-375, biotinylated (in the Octet pH assay only)). Description: cell-based or functional assay.
Test [6] has as its target T3, recombinant human latent myostatin. Nature of the test: cell-based or functional assay. This is another data set of the same source.
For test [7] the target is unchanged. Description: cell-based or functional assay. This is another data set of the same source.
The target of test [8] is T1, human pro-myostatin. Nature of the test: SPR Biacore 8K, biotin-antigen captured.
For test [9], the target named is T2, murine pro-myostatin. Description: SPR Biacore 8K, biotin-antigen captured. In general terms: SPR reads the build-up and loss of mass on a sensor chip optically.
The target in test [10] is T4, cyno pro-myostatin (cynomolgus monkey, Biotinylated for capture in the SPR assay (site not stated). The native form is a disulfide-linked homodimer, partly furin-cleaved; one chain is given.).
T4 construct: also called proGDF8 (cynomolgus); cynomolgus monkey pro-myostatin
Description: SPR Biacore 8K, biotin-antigen captured.

Test [11] deals with T1, human pro-myostatin. Nature of the test: Ab KD, summary Table 11; method and antigen not stated there.
Test [12] deals with T3, recombinant human latent myostatin. Description: BLI Octet Red384, biotin human latent myostatin on streptavidin tips. As for the experimental part: Binding was performed at pH 7.4 and dissociation at pH 5.5 in an Octet Red384@assay. Streptavidin biosensors were baselined in 1x kinetics buffer (KB) (Sartorius) for one minute, then loaded with 100 nM biotinylated human latent myostatin for five minutes, followed by another baseline step of one minute in 1x KB. Binding of test antibodies was performed for five minutes and then dissociation was performed in PBS at either pH 7.4 or pH 5.5 for five minutes. Analysis was performed using a partial fit, in which full dissociation was projected. Kd at pH 5.5 was divided by Kd at pH 7.4 to calculate pH sensitivity.

In test [13] the target is T4, cyno pro-myostatin. Nature of the test: plate binding assay, absorbance at 450 nm, antibody titrated 100 to about 0.002 nM, panel 'Cyno Pure Pro-GDF-8' (method not described in the text).
The target in test [14] is T1, human pro-myostatin. Description: plate binding assay, OD 450 nm, antibody titrated 0.0003 to 100 nM, panel 'Hu-Pro-GDF-8 Plate 1' (method not described in the text).

The term EC50 (read off the curve) denotes the concentration that produces a half-maximal response. Read a low EC50 (read off the curve) as a more potent agent. As usually defined, the Kd is the constant that tells how readily two partners part at equilibrium. Low values mean higher affinity, high ones lower affinity. The term koff denotes the first-order rate constant of dissociation. By kon is commonly meant the rate constant with which the complex forms.

Residue numbers refer to the chain shown, from its start.

Chain of mouse GDF-11 (Q9Z1W4 297-405 limits assumed): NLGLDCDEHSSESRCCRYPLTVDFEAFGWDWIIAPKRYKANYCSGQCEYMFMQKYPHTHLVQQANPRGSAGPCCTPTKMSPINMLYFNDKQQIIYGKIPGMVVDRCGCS
Chain of human GDF-11 (O95390 299-407 limits assumed): as the sequence (Q9Z1W4 297-405 limits assumed) above

B1: Ab119 (antibody, human IgG4 S228P, kappa, V domains shown)
VH: QVQLVQSGAEVKKPGASVKVSCKVSGYTFTKDHIHWVRQAPGKGLEWMGGITPSSGDTIYAQKFQGRVTMTEDTSTDTAYMELSSLKSEDTAVYYCARDHMVRGLPNYYYGMDLWGQGTTVTVSS
VL: DIQMTQSPSSVSASVGDRVTITCRASRDIANYLAWYQQKPGKAPKLLIYAASILQNGVPSRFSGSGSGTDFTLTISSLQPEDFANYYCQQAYTTPPTFGGGTKVEIKR
B1: the binding result with human GDF-11 was “no binding”; with mouse GDF-11 it was “no binding”; in the test with human pro-myostatin [1], “binds”; with murine pro-myostatin [2], “binds”.

B2: Ab116 (antibody, human IgG4 S228P, kappa, V domains shown)
VH: QVQLVQSGAEVKKPGASVKVSCKVSGFTFSRPAIHWVRQAPGKGLEWMGGINPNAATTIYAQKFQGRVTMTEDTSTDTAYMELSSLKSEDTAVYYCARGRLLREWELRPYDTWGQGTLVTVSS
VL: DIQMTQSPSSVSASVGDRVTITCRASQSIGKSLAWYQQKPGKAPKLLIYSASNLRSGVPSRFSGSGSGTDFTLTISSLQPEDFANYYCQQYRDVPPITFGGGTKVEIKR
Turning to B2, the binding result in the test with human GDF-11 and with mouse GDF-11 was “no binding” each time. Moreover, the “EC50 (read off the curve)” value with human pro-myostatin [1] and with murine pro-myostatin [2] was approximately 1 nM each time.

B3: Ab126 (antibody, human IgG4 S228P, kappa, V domains shown)
VH: EVQLVESGGGLVQPGGSLRLSCTASSFTFSNYAMDWVRQAPGKGLEWVSYISSDASTTYYADSVKGRFTISRDNAKNTLYLQMNSLRAEDTAVYYCARDGGYNPGIFDYWGQGTLVTVSS
VL: DIQMTQSPSSLSASVGDRVTITCQASQSIGRWLNWYQQKPGKAPKLLIYDASILQTGVPSRFSGSGSGTDFTFTISSLQPEDIATYYCQQSFTTPPLTFGGGTKVEIKR
Regarding B3, the binding result with human GDF-11 is “no binding”; in the test with mouse GDF-11 it was “no binding”; with human pro-myostatin [3], “binds”; with murine pro-myostatin [4], “binds”.

B4: Ab133 (antibody, human IgG4 S228P, kappa, V domains shown)
VH: EVQLVESGGGLVQPGGSLRLSCAASGFTFSSYGMSWVRQAPGKGLELVASFTGSGGAYYPDSVKGRFTISRDNAKNSLYLQMNSLRAEDTAVYYCARDLLIRFLEWSHYYGMDVWGQGTTVTVSS
VL: DIVMTQSPLSLPVTPGEPASISCRSSQSLLHSSGHNFLHWYLQKPGQSPQLLIYEVSNRVSGVPDRFSGSGSGTDFTLKISRVEAEDVGVYYCQQQTQYPGTFGGGTKVEIKR
notes: human IgG4 in the EM experiment; also called Ab133 Human IgG4
Regarding B4, the “IC50 of inhibition of myostatin activation by mTLL-2 (functional ELISA, FIG. 1B)” value in [5] came out at 0.16 nM. Besides, in [6], the “IC50 (nM) Latent + mTLL2” value was determined as 0.161 nM. Further, the “mTLL2 IC50” value in [7] came out at 0.161 nM. Further, the Kd with human pro-myostatin [8] is 0.041 nM; in the test with murine pro-myostatin [9], 0.054 nM; in the test with cyno pro-myostatin [10] it was 0.0383 nM; with human pro-myostatin [11], 0.041 nM. Further, the koff with human pro-myostatin [8] came out at 0.000116 s⁻¹; in the test with murine pro-myostatin [9], 0.000162 s⁻¹; with cyno pro-myostatin [10], 0.000109 s⁻¹. Moreover, the kon in the test with human pro-myostatin [8] turned out to be 2.84e+06 M⁻¹ s⁻¹; with murine pro-myostatin [9] it was 3.01e+06 M⁻¹ s⁻¹; with cyno pro-myostatin [10], 2.86e+06 M⁻¹ s⁻¹. Besides, the “fold difference in off-rate (Kd at pH 5.5 / Kd at pH 7.4)” value in test [12] is 17.5 fold.

B5: Ab130 (antibody, human IgG4 S228P, kappa, V domains shown)
VH: EVQLVESGGGLVQPGGSLRLSCAASGFTFTSYGMSWVRQAPGKGLELVASITGSGGETYYPDSVKGRFTISRDNAKNSLYLQMNSLRAEDTAVYYCARDLLVRFLEWSHYYGMDVWGQGTTVTVSS
VL: B4 VL with V56T, V60A, S61P, V63I, Q96A, Y99F, G101R, T102P
Take B5: in test [5], the “IC50 of inhibition of myostatin activation by mTLL-2 (functional ELISA, FIG. 1A)” value amounted to 0.31 nM and the “IC50 of inhibition of myostatin activation by mTLL-2 (functional ELISA, FIG. 1B)” value came out at 0.3 nM. In addition, the “mTLL2 IC50” value in [7] stood at 0.33 nM. The Kd in the test with human pro-myostatin [11] was determined as 0.35 nM. The “fold difference in off-rate (Kd at pH 5.5 / Kd at pH 7.4)” value in [12] was 10.6 fold.

B6: Ab135 (antibody, human IgG4 S228P, kappa, V domains shown)
VH: B5 VH with F27S, T28A, T30S, T52N, G53S, S54N, E57S, R103T, E106R
VL: B4 VL with Q94M, G101P
Regarding B6, the “IC50 (nM) Latent + mTLL2” value in [6] came out at 0.154 nM. Further, in the test with cyno pro-myostatin [13], the “EC50 (read off the curve)” value is approximately 0.3 nM.

B7: Ab110 (antibody, human IgG4 S228P, kappa, V domains shown)
VH: QVQLVQSGAEVKKPGASVKVSCKVSEYTFTNYDIHWVRQAPGKGLEWMGGISAYHGNAIYAQKFQGRVTMTEDTSTDTAYMELSSLKSEDTAVYYCARDRVRRDYYNFGMDVWGQGTTVTVSS
VL: DIQMTQSPSSVSASVGDRVTITCRASEDITSYLAWYQQKPGKAPKLLIYDVSSLQSGVPSRFSGSGSGTDFTLTISSLQPEDFANYYCLQHNAYPYGFGGGTKVEIKR
Turning to B7, the “EC50 (read off the curve)” value in the test with human pro-myostatin [14] is approximately 0.5 nM.

B8: Ab117 (antibody, human IgG4 S228P, kappa, V domains shown)
VH: QVQLVQSGAEVKKPGASVKVSCKVSGGTFSSHDIHWVRQAPGKGLEWMGGINPSDASTIYAQKFQGRVTMTEDTSTDTAYMELSSLKSEDTAVYYCARDLRGYSYGAETWHFQHWGQGTLVTVSS
VL: DIQMTQSPSSVSASVGDRVTITCRASQYISNYLAWYQQKPGKAPKLLIYETSRLESGVPSRFSGSGSGTDFTLTISSLQPEDFANYYCQQTSSTPLTFGGGTKVEIKR
As for B8, the binding result with human GDF-11 is reported as “no binding”; with mouse GDF-11, “no binding”; in the test with human pro-myostatin [1] it was “binds”; with murine pro-myostatin [2], “binds”.

B9: Ab125 (antibody, human IgG4 S228P, kappa, V domains shown)
VH: EVQLVQSGAEVKKPGESLKISCKGSGNRISDYWMNWVRQVPGKGLEWMGNIYPGYSDATYNRKFKGQVTISADKSISTAYLQWSSLKASDTAIYYCARGRDGYNYFAAFDIWGQGTMVTVSS
VL: EIVLTQSPATLSLSPGERATLSCRASQSVASSYLAWYQQKPGQAPRLLIYDTSSRAAGIPARFSGSGSGTDFTLTISSLEPEDFAVYYCHQYGSSLTTFGGGTKVEIKR
With B9, the “IC50 (nM) Latent + mTLL2” value in test [6] is 0.202 nM. In the test with murine pro-myostatin [9], this molecule gave a Kd of 0.125 nM, a koff of 0.000411 s⁻¹ and a kon of 3.29e+06 M⁻¹ s⁻¹. For the same molecule, the binding result with human GDF-11 is on record as “no binding”. In the test with mouse GDF-11, the binding result is on record as “no binding”. The “EC50 (read off the curve)” value with murine pro-myostatin [4] was approximately 0.2 nM.
